Source: publication PMC9089384

Molecular target: human SHP2 catalytic domain (human) (UniProt Q06124)

- IC50 of inhibition of SHP2 CD PTP activity by isolated N-SH2 (Figure S2): 15 µM
Substance: isolated SHP2 N-SH2 domain (domain or fragment)
